According to US7741124B2, “Detection procedures for fibrinogen and/or fibrinogen derivatives” (priority 2003, dated 2010):

Tested on: vancomycin
Test: Vancomycin-reactivity with fibrinogen split products (t-PA incubated plasma) or BrCN-cleaved fibrinogen
Format: biochemical
Settings: 50 μl 1000 IU/ml t-PA
Experimental: 25 μl P-Pool were incubated with 25 μl 0 mM or 15 mM CT in PBS for 60 min (RT). Then 50 μl 1000 IU/ml t-PA, 0.1% Triton X 100® in PBS were added. […] In addition, 10 mg/ml BrCN-cleaved fibrinogen in 6% BSA-PBS or in pooled serum were assayed in the FIATA.

B1: t-PA: t-PA, 1000 IU/ml in PBS, 0.1% Triton X 100 (protein, UniProt P00750 36-562, looked up)
Tissue-type plasminogen …: SYQVICRDEKTQMIYQQHQSWLRPVLRSNRVEYCWCNSGRAQCHSVPVKSCSEPRCFNGGTCQQALYFSDFVCQCPEGFAGKCCEIDTRATCYEDQGISYRGTWSTAESGAECTNWNSSALAQKPYSGRRPDAIRLGLGNHNYCRNPDRDSKPWCYVFKAGKYSSEFCSTPACSEGNSDCYFGNGSAYRGTHSLTESGASCLPWNSMILIGKVYTAQNPSAQALGLGKHNYCRNPDGDAKPWCHVLKNRRLTWEYCDVPSCSTCGLRQYSQPQFRIKGGLFADIASHPWQAAIFAKHRRSPGERFLCGGILISSCWILSAAHCFQERFPPHHLTVILGRTYRVVPGEEEQKFEVEKYIVHKEFDDDTYDNDIALLQLKSDSSRCAQESSVVRTVCLPPADLQLPDWTECELSGYGKHEALSPFYSERLKEAHVRLYPSSRCTSQHLLNRTVTDNMLCAGDTRSGGPQANLHDACQGDSGGPLVCLNDGRMTLVGIISWGLGCGQKDVPGVYTKVTNYLDWIRDNMRP
- time for 50% loss of vancomycin reactivity (15 mM CT-oxidized plasma): about 1 h
- incubation time for complete loss of vancomycin reactivity (25 μl 15 mM CT-oxidized citrated plasma): 3 h
- time for 50% loss of vancomycin reactivity (unoxidized plasma): 6 h
